{"source": "patent US20240392002A1", "about": "(EXELIXIS, published 2024)", "binders": {"B1": {"name": "I2A-1 IgG1 (antibody, V domains shown)", "VH": "EVQLVESGGGLVQPGGSLRLSCAASGFTFSSYFIHWVRQAPGKGLEWVAAIYPEGGYTYYADSVKGRFTISADTSKNTAYLQMNSLRAEDTAVYYCARDYKYVGALDYWGQGTLVTVSS", "VL": "DIQMTQSPSSLSASVGDRVTITCRASQSVSSAVAWYQQKPGKAPKLLIYSASSLYSGVPSRFSGSRSGTDFTLTISSLQPEDFATYYCQQYYYFPGTFGQGTKVEIK", "notes": "human IgG1"}, "B2": {"name": "I2A-16 IgG1 (antibody, V domains shown)", "VH": "EVQLVESGGGLVQPGGSLRLSCAASGFTFSGYFIHWVRQAPGKGLEWVAAIFPYRGGTSYADSVKGRFTISADTSKNTAYLQMNSLRAEDTAVYYCARGGVSPGGFDYWGQGTLVTVSS", "VL": "B1 VL with Y93L, F94Y", "notes": "human IgG1"}, "B3": {"name": "I2A-4 IgG1 (antibody, V domains shown)", "VH": "EVQLVESGGGLVQPGGSLRLSCAASGFTFYSYDIHWVRQAPGKGLEWVAYISPYWGITTYADSVKGRFTISADTSKNTAYLQMNSLRAEDTAVYYCARYIGSSYWDALDYWGQGTLVTVSS", "VL": "B1 VL with Y91S, Y92D, Y93S, F94S, P95L, G96V", "notes": "human IgG1"}, "B4": {"name": "I2A-22 IgG1 (antibody, V domains shown)", "VH": "EVQLVESGGGLVQPGGSLRLSCAASGFTFSSYFIHWVRQAPGKGLEWVAAIYPSGWYTSYADSVKGRFTISADTSKNTAYLQMNSLRAEDTAVYYCARVQAGVFDYWGQGTLVTVSS", "VL": "B1 VL with F94Y", "notes": "human IgG1"}, "B5": {"name": "I2A-6 IgG1 (antibody, V domains shown)", "VH": "EVQLVESGGGLVQPGGSLRLSCAASGFTFSLYAIHWVRQAPGKGLEWVAEIDSWLGYTYYADSVKGRFTISADTSKNTAYLQMNSLRAEDTAVYYCARRPVTEVYYSALDYWGQGTLVTVSS", "VL": "B1 VL with Y92D, Y93R, F94S, P95L, G96H", "notes": "human IgG1"}, "B6": {"name": "I2A-20 IgG1 (antibody, V domains shown)", "VH": "EVQLVESGGGLVQPGGSLRLSCAASGFTFSDYGIHWVRQAPGKGLEWVAEIDSWLGYTYYADSVKGRFTISADTSKNTAYLQMNSLRAEDTAVYYCARSPYHYLYYGLDYWGQGTLVTVSS", "VL": "B1 VL with Y91L, Y92S, Y93S, F94S, P95L", "notes": "human IgG1"}, "B7": {"name": "I2A-14 IgG1 (antibody, V domains shown)", "VH": "EVQLVESGGGLVQPGGSLRLSCAASGFTFDSYVIHWVRQAPGKGLEWVAYIFSFGGYTYYADSVKGRFTISADTSKNTAYLQMNSLRAEDTAVYYCARSPYGTFALDYWGQGTLVTVSS", "VL": "B1 VL with F94T", "notes": "human IgG1"}, "B8": {"name": "I2A-3 IgG1 (antibody, V domains shown)", "VH": "EVQLVESGGGLVQPGGSLRLSCAASGFTFTSYEIHWVRQAPGKGLEWVAHIDPYGGYTQYADSVKGRFTISADTSKNTAYLQMNSLRAEDTAVYYCARRGVAVFDYWGQGTLVTVSS", "VL": "B1 VL with Y91W, Y92A, F94A, G96V", "notes": "human IgG1"}, "B9": {"name": "I2C-11 IgG1 (antibody, V domains shown)", "VH": "B1 VH with S30G, Y52F, E54A, D99Y, Y100G, K101S, Y102M, V103G, L106F", "VL": "B1 VL with Y93W", "notes": "human IgG1"}, "B10": {"name": "I2C-1 IgG1 (antibody, V domains shown)", "VH": "EVQLVESGGGLVQPGGSLRLSCAASGFTFTSYGIHWVRQAPGKGLEWVAAIYPHSGFTSYADSVKGRFTISADTSKNTAYLQMNSLRAEDTAVYYCARTSYRGFDYWGQGTLVTVSS", "VL": "B1 VL with Y93W, F94Y", "notes": "human IgG1"}}, "note": "Positions count from the first letter of the chain named. Numbers in names are those of the source."}
{"molecular_target": "T1, extracellular domain of human ROR2 (human, UniProt Q01974 34-403)", "T1 construct": "bought protein; biotinylated in the bivalent assay format; also called Acro Cat. No. RO2-H52E5", "T1 sequence (Q01974 34-403 limits assumed)": "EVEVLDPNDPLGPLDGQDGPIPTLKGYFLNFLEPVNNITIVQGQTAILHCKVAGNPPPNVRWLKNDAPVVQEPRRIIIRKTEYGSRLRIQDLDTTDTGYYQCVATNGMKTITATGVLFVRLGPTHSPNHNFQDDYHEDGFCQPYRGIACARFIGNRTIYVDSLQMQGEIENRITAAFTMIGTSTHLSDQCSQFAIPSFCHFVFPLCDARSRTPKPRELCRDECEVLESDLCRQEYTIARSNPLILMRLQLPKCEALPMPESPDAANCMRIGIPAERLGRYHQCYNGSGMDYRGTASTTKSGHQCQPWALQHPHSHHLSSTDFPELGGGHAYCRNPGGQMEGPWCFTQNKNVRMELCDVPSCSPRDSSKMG", "assay": "BLI, IgG1 on biosensor, soluble ROR ectodomain", "excerpt": "(§1) To measure binding affinity in ROR binder discovery campaigns, the VL and VH domains identified in the phage screen described above were formatted into a bivalent monospecific native human full-length IgG1 architecture and immobilized to a biosensor on an Octet (Pall ForteBio) biolayer interferometer. Soluble ROR antigens, including the extracellular domains of ROR1 (Acro Cat. No. RO1-H522γ) and ROR2 (Acro Cat. No. R02-H52E5), as well as the individual ROR1 Frizzled (Acro Cat. No. RO1-H5222), Ig-like (Acro Cat. No. RO1-H5221), and Kringle (Acro Cat. No. RO1-H5223) domains, were then added to the system and binding measured.\n(§2) ROR binding candidates, formatted in the bivalent monospecific native human full-length IgG1 architecture, were further characterized for binding to ROR1 and/or ROR2. […] ROR binding candidates were also characterized for their binding to specific ROR1 domains."}
{"binder": "B1", "binding result": "binds"}
{"binder": "B2", "binding result": "binds"}
{"binder": "B3", "binding result": "no binding"}
{"binder": "B4", "binding result": "binds"}
{"binder": "B5", "binding result": "no binding"}
{"binder": "B6", "binding result": "no binding"}
{"binder": "B7", "binding result": "binds"}
{"binder": "B8", "binding result": "no binding"}
{"binder": "B9", "binding result": "binds"}
{"binder": "B10", "binding result": "binds"}
{"molecular_target": "T2, extracellular domain of human ROR1 (human, UniProt Q01973 30-406)", "T2 construct": "bought protein; biotinylated in the bivalent assay format; also called Acro Cat. No. RO1-H522y", "T2 sequence (Q01973 30-406 limits assumed)": "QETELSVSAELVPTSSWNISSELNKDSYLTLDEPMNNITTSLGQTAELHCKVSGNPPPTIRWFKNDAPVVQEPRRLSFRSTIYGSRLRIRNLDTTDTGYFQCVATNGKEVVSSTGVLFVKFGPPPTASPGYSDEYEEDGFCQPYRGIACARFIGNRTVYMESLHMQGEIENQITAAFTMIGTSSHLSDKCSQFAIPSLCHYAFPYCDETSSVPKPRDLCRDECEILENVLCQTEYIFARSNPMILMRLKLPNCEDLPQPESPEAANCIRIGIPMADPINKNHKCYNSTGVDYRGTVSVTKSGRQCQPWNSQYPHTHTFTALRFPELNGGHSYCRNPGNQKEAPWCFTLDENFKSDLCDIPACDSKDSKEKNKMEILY", "assay": "BLI, IgG1 on biosensor, soluble ROR ectodomain", "excerpt": "as §1, §2"}
{"binder": "B1", "binding result": "binds"}
{"binder": "B2", "binding result": "binds"}
{"binder": "B3", "binding result": "binds"}
{"binder": "B4", "binding result": "binds"}
{"binder": "B5", "binding result": "binds"}
{"binder": "B6", "binding result": "binds"}
{"binder": "B7", "binding result": "binds"}
{"binder": "B8", "binding result": "binds"}
{"binder": "B9", "binding result": "binds"}
{"binder": "B10", "binding result": "binds"}
{"molecular_target": "T3, ROR1 Ig-like domain (human, UniProt Q01973 42-147)", "T3 construct": "also called Acro Cat. No. RO1-H5221", "T3 sequence (Q01973 42-147)": "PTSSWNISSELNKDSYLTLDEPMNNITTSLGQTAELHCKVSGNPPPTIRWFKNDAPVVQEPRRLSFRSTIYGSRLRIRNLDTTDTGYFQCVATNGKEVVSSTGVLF", "assay": "BLI, IgG1 on biosensor, soluble ROR1 domain", "excerpt": "as §1, §2"}
{"binder": "B1", "binding result": "binds"}
{"binder": "B2", "binding result": "binds"}
{"binder": "B3", "binding result": "binds"}
{"binder": "B4", "binding result": "binds"}
{"binder": "B5", "binding result": "binds"}
{"binder": "B6", "binding result": "binds"}
{"binder": "B7", "binding result": "binds"}
{"binder": "B8", "binding result": "binds"}
{"binder": "B9", "binding result": "binds"}
{"binder": "B10", "binding result": "binds"}
